# Values of other authors in PMC10218885.
# How the values were obtained:
# Assay in all cases: NMR
# [1] = target: Tyr94 (UniProt position 94, NTMFEYTFDYQ)
# [2] = target: Tyr76 (UniProt position 76, DSPEFYGKFKE)
# [3] = target: Tyr42 (UniProt position 42, GNILQYNAAEG)
# [4] = target: Tyr98 (UniProt position 98, EYTFDYQMTPT)
# [5] = target: Tyr118 (UniProt position 118, LSGDSYWVFVK)
substance,measurement,setting,value
Photoactive yellow protein (PYP) (Stated in the article as Halobacterium halobium; the PYP of the cited study is from Halorhodospira halophila (formerly Ectothiorhodospira halophila)),pKa,[1],> 13
same,pKa,[2],10.2–10.3
same,pKa,[3],> 13
same,pKa,[4],10.2–10.3
same,pKa,[5],11.4–12.0
